Our source for the Kd values is paper PMC10161063 (Proceedings of the National Academy of Sciences of the …, 2023).

What all share (assay): ITC
(In general: ITC needs no label: the signal is the heat of the interaction.)

Experiment [1] deals with T1, Vac8 (full length, residues 1 to 578) (S. cerevisiae, UniProt P39968 1-578).
T1 sequence: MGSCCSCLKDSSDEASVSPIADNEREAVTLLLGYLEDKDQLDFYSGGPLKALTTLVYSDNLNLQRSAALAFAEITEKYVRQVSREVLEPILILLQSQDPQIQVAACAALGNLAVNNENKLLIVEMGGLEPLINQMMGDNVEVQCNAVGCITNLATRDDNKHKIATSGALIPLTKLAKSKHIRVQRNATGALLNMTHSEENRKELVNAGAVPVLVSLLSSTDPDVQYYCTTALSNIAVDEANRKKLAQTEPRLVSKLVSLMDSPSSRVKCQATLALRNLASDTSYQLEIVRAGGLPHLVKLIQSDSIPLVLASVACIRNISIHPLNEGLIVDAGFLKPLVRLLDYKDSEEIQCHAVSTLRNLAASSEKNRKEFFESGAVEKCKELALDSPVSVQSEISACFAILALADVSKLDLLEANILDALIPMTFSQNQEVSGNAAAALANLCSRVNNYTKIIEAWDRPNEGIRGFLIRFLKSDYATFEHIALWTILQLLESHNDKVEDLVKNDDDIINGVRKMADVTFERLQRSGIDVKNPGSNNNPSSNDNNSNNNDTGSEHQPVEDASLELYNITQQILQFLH

Experiment [2] addresses T2, preformed Vac8–tVac17 complex (ITC sample cell) (S. cerevisiae, UniProt P39968;P25591).
T2 sequence 1: T1 sequence
T2 sequence 2: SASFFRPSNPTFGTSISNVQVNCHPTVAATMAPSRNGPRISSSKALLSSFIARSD

Experiment [3] deals with T1, Vac8 (full length, residues 1 to 578). The source holds these as a separate data set.

Like-named read-outs stand apart in the source and are kept apart here. Where no end group is shown, it is not given here.

B1: Halo-tag-conjugated tVac17 (Vac17 residues 290 to 344) (domain or fragment)
chain: T2 sequence 2
modifications: also: Halo-tag conjugate
B1: in experiment [1], binding was characterised by a dissociation constant (Kd) of 2530 nM.

B2: Atg13^567–695 (domain or fragment)
chain: GGNSSTSALNSRRNSLDKSSNKQGMSGLPPIFGGESTSYHHDNKIQKYNQLGVEEDDDDENDRLLNQMGNSATKFKSSISPRSIDSISSSFIKSRIPIRQPYHYSQPTTAPFQAQAKFHKPANKLIDNG
For B2, in experiment [2], the Kd (usually the free concentration of one partner at which half of the binding sites on the other are occupied at equilibrium, for simple one-to-one binding) was found to be 9.02 µM.

B3: Nvj1^229–321 (domain or fragment)
chain: NREKDCSSSSEVESQSKCRKESTAEPDSLSRDTRTTSSLKSSTSFPISFKGSIDLKSLNQPSSLLHIQVSPTKSSNLDAQVNTEQAYSQPFRY
For the molecule B3, the Kd in experiment [2] is 10 µM; in experiment [3] it was 710 nM.
